The target of test [1] is HIV-1JR-FL envelope glycoprotein gp120/gp41 on HeLa-EnvJR-FL+ cells (HIV-1 JR-FL). Description: cell-based or functional assay.
Test [2] concerns the target CCR5 chemokine receptor on the cell surface (UniProt P51681).
Test [3] shares this target. In words: cell-based or functional assay.
Test [4] has the same target. In words: flow cytometry on PHA/IL-2-stimulated PBMC. (In flow cytometry, cells or beads pass a laser one at a time.)
For test [5] the target is unchanged. Description: flow cytometry on L1.2-CCR5+ cells, PE anti-mouse IgG.

Chain of UniProt P51681 (P51681 whole entry): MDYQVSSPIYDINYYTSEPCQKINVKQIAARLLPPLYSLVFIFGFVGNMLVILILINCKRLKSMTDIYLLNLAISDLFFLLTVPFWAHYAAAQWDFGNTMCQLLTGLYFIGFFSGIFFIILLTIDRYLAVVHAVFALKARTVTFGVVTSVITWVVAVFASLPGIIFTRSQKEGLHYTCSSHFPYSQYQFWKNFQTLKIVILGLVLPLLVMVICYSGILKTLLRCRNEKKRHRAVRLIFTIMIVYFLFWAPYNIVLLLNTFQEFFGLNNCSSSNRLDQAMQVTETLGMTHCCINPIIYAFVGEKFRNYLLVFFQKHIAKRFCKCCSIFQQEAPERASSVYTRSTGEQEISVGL

Take “CD4-IgG2 (from UniProt P01730 26-204; P01730 26-204) (Fc fusion)”: in test [1], the K (= IC50) of the median effect fit, inhibition of env-mediated membrane fusion (RET assay) is 0.31 µg/mL.
Still for that read-out and setting: the figure for T-20 peptide is 0.017 µg/mL.
Take anti-CCR5 mAb 2D7 (antibody): the IC50 – broadly, the midpoint of a concentration-inhibition curve – in test [2] worked out at 1.38 µg/mL. Besides, in test [3], the IC50, inhibition of JR-FL entry (luciferase reporter virus, U87MG-CD4+CCR5+ cells) was 0.026 µg/mL; the IC50, inhibition of cell-cell fusion (RET assay, PM1 and HeLa-EnvJR-FL+ cells) is 1.6 µg/mL; the K (= IC50) of the median effect fit, inhibition of cell-cell fusion (RET assay) worked out at 0.36 µg/mL. Further, the % of cells stained in test [4] is > 20 % of PBMC. The substance further yielded a % of cells stained (% of L1.2-CCR5+ cells) in test [5] above 90.
In test [2], “anti-CCR5 monoclonal antibody PA14 (ATCC No. HB-12610)” had an IC50 of 1.58 µg/mL. Further, in test [3], the IC50, inhibition of JR-FL entry (luciferase reporter virus, U87MG-CD4+CCR5+ cells) amounted to 0.024 µg/mL; the IC50, inhibition of RANTES-induced calcium influx in L1.2-CCR5+ cells was found to be 50 µg/mL; the IC50, inhibition of cell-cell fusion (RET assay, PM1 and HeLa-EnvJR-FL+ cells) is 1.7 µg/mL; the IC50 of calcium influx inhibition, PA14 against 2D7 amounted to 8 fold. Further, in test [4], the % of cells stained is > 20 % of PBMC and the fold difference of m.f.i. against PA9 amounted to 7 fold. Also, the % of cells stained (% of L1.2-CCR5+ cells) in test [5] is above 90.

The values are drawn from patent publication US7037497.
